Test results from PMC10572825.

Biological target: CXCL12 (Homo sapiens) (UniProt P48061)
Assay: isothermal fluorescence titration
Conditions: FITC-labelled tenascin-C

CXCL12 (Homo sapiens), sequence (P48061 22-89): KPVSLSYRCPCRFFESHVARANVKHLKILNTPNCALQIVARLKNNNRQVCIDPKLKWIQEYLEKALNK

Kd: 1010 nM
Substance: Tenascin-C, Q80YX1
